Measurements from US20120058906A1 (published 2012).
Changes are numbered by the printed parent chain. Blank lines part the entries; values can stand above or below the binder they belong to.

Legend:
[1] = molecular target: T1, rHuman CD44/Fc Chimera, CF (R&D Systems Cat#3660-CD) (human, UniProt P16070 21-220); experiment: MSD ECL multi-spot plate, antigen immobilized; Fab 1000 nM; blank spot 427
T1 construct: Purchased Fc chimera; not shown: Fc portion of the purchased chimera

[2] = molecular target: T2, rHuman P-Cadherin/Fc Chimera, CF (R&D Systems Cat#861-PC) (human, UniProt P22223 108-654); experiment: as above
T2 construct: Purchased Fc chimera; not shown: Fc portion of the purchased chimera

[3] = molecular target: T3, rHuman HGF R/c-MET/Fc Chimera, CF (R&D Systems Cat#358-MT/CF) (human, UniProt P08581 25-932); experiment: as above
T3 construct: Purchased Fc chimera; also called HGF R/Fc; not shown: Fc portion of the purchased chimera

[4] = molecular target: T4, Recombinant Human DLL4 (R&D Systems Cat#1506-D4/CF) (human, UniProt Q9NR61 27-524); experiment: as above
T4 construct: Purchased recombinant protein; also called delta-like protein 4

[5] = molecular target: T5, rHuman EGF R/Fc Chimera, CF (R&D Systems Cat#344-ER) (human, UniProt P00533 25-645); experiment: as above
T5 construct: Purchased Fc chimera; not shown: Fc portion of the purchased chimera

[6] = molecular target: T6, rHuman Notch-1/Fc Chimera, CF (R&D Systems Cat#3647-TK) (human, UniProt P46531 19-526); experiment: as above
T6 construct: Purchased Fc chimera; not shown: Fc portion of the purchased chimera

[7] = molecular target: T7, rHuman Erythropoietin R/Fc Chimera, CF (R&D Systems Cat#963-ER) (human, UniProt P19235 25-250); experiment: as above
T7 construct: Purchased Fc chimera; also called EPO R/Fc; Epo R; not shown: Fc portion of the purchased chimera
T7 sequence: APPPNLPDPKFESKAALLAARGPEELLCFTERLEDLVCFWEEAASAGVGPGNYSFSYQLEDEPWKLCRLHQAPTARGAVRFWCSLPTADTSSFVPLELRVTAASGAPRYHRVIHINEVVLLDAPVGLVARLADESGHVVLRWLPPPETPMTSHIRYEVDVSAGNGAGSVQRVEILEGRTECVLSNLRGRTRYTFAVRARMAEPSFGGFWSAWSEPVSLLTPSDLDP

[8] = molecular target: T8, rHuman IGF-1 sR (IGF-1 sR), CF (R&D Systems Cat#391-GR) (human, UniProt P08069 31-932); experiment: as above
T8 construct: Purchased soluble receptor; also called insulin-like growth factor-1 soluble receptor; IGF-R1

[9] = molecular target: T9, rHuman ErbB2/Fc Chimera, CF (R&D Systems Cat#1129-ER) (human, UniProt P04626 23-652); experiment: as above
T9 construct: Purchased Fc chimera; also called HER2/neu; not shown: Fc portion of the purchased chimera

[10] = molecular target: T10, Recombinant Human DLL4 (R&D Systems Cat#1506-D4/CF) (human, UniProt Q9NR61 27-524); experiment: ECL (MSD Multi-Spot) binding assay, antigen spotted on plate; Fab 154 nM; blank spot 447
T10 construct: Bought recombinant protein; also called delta-like protein 4; rHuman DLL4

[11] = molecular target: T11, rHuman IGF-1 sR (IGF-1 sR), CF (R&D Systems Cat#391-GR) (human, UniProt P08069 31-932); experiment: as above
T11 construct: Bought soluble receptor; also called insulin-like growth factor-1 soluble receptor; IGF-R1

[12] = molecular target: T12, rHuman Erythropoietin R/Fc Chimera, CF (R&D Systems Cat#963-ER) (human, UniProt P19235 25-250); experiment: as above
T12 construct: Bought Fc chimera; also called EPO R/Fc; Epo R; Fc part of the bought chimera not given
T12 sequence: T7 sequence

[13] = molecular target: T13, rHuman ErbB2/Fc Chimera, CF (R&D Systems Cat#1129-ER) (human, UniProt P04626 23-652); experiment: as above
T13 construct: Bought Fc chimera; also called HER2/neu; human epidermal growth factor 2 receptor; Fc part of the bought chimera not given

[14] = molecular target: T14, rHuman CD44/Fc Chimera, CF (R&D Systems Cat#3660-CD) (human, UniProt P16070 21-220); experiment: as above
T14 construct: Bought Fc chimera; Fc part of the bought chimera not given

[15] = molecular target: T15, rHuman Notch-1/Fc Chimera, CF (R&D Systems Cat#3647-TK) (human, UniProt P46531 19-526); experiment: as above
T15 construct: Bought Fc chimera; Fc part of the bought chimera not given

[16] = molecular target: T16, rHuman EGF R/Fc Chimera, CF (R&D Systems Cat#344-ER) (human, UniProt P00533 25-645); experiment: as above
T16 construct: Bought Fc chimera; also called epidermal growth factor receptor; Fc part of the bought chimera not given

[17] = molecular target: T17, rHuman CD44/Fc Chimera, CF (R&D Systems Cat#3660-CD) (human, UniProt P16070 21-220); experiment: MSD ECL titration, Fab 9.3 nM, blank 287
T17 construct: Bought Fc chimera; Fc part of the bought chimera not given

[18] = molecular target: T18, rHuman Notch-1/Fc Chimera, CF (R&D Systems Cat#3647-TK) (human, UniProt P46531 19-526); experiment: MSD ECL titration, Fab 9.3 nM, blank 287
T18 construct: Bought Fc chimera; Fc part of the bought chimera not given

[19] = molecular target: T19, rHuman Notch-1/Fc Chimera, CF (R&D Systems Cat#3647-TK) (human, UniProt P46531 19-526); experiment: ECL (MSD multi-spot), antigen on plate, Fab 50 nM
T19 construct: Bought Fc chimera; not shown: Fc of the bought chimera
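Further: blank spot per well as comparator with Hit at signal to blank ratio of 4 or more.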

B3: Fab VH1-46_IGHD6-6*01_IGHJ1*01 & L6_IGKJ1*01 (Fab, V domains shown)
VH: QVQLVQSGAEVKKPGASVKVSCKASGYTFTSYYMHWVRQAPGQGLEWMGIINPSGGSTSYAQKFQGRVTMTRDTSTSTVYMELSSLRSEDTAVYYCAREEYSSSSAEYFQHWGQGTLVTVSS
VL: not shown
notes: Expressed in E. coli as Fab: heavy chain with CH1 plus Flag and His tags from Plasmid A, kappa light chain constant region from Plasmid C; also called Fab No. 1
- ECL signal [17]: 396
- ECL signal [18]: 492

B4: Fab VH1-46_IGHD6-6*01_IGHJ1*01_S102A_S103P_S104F & L6_IGKJ1*01_S31K (Fab, V domains shown)
VH: B3 VH with S102A, S103P, S104F
VL: EIVLTQSPATLSLSPGERATLSCRASQSVSKYLAWYQQKPGQAPRLLIYDASNRATGIPARFSGSGSGTDFTLTISSLEPEDFAVYYCQQRSNWPPWTFGQGTKVEIKR
notes: Fab
- ECL signal [19]: 355 ECL signal

Next, values leading:

- ECL signal [1]: 559 ECL signal
- ECL signal [2]: 762 ECL signal
- ECL signal [3]: 778 ECL signal
- ECL signal [4]: 23400 ECL signal
- ECL signal [5]: 721 ECL signal
- ECL signal [6]: 761 ECL signal
- ECL signal [7]: 666 ECL signal
- ECL signal [8]: 733 ECL signal
- ECL signal [9]: 945 ECL signal
B1: Fab VH5-51_IGHD5-18*01>3_IGHJ4*01_G100R & V3-4_IGLJ1*01 (Fab, V domains shown)
VH: EVQLVQSGAEVKKPGESLKISCKGSGYSFTSYWIGWVRQMPGKGLEWMGIIYPGDSDTRYSPSFQGQVTISADKSISTAYLQWSSLKASDTAMYYCARRRYSYGYDYFDYWGQGTLVTVSS
VL: QTVVTQEPSFSVSPGGTVTLTCGLSSGSVSTSYYPSWYQQTPGQAPRTLIYSTNTRSSGVPDRFSGSILGNKAALTITGAQADDESDYYCVLYMGSGISYVFGTGTKVTVL
notes: It was expressed as a Fab: CH1 with tags from Plasmid A and lambda CL from Plasmid E; also called Fab No. 23

- ECL signal [10]: 40400
- ECL signal [11]: 1400
- ECL signal [12]: 1200
- ECL signal [13]: 1590
- ECL signal [14]: 960
- ECL signal [15]: 929
- ECL signal [16]: 1400
B2: Fab VH5-51_IGHD5-18*01>3_IGHJ4*01 & V3-4_IGLJ1*01 (Fab, V domains shown)
VH: B1 VH with R100G
VL: B1 VL
notes: Tested as a Fab made in E. coli; also called IGHV5-51*03
